# Results reported in patent US10472652B2, “Chemical engineering processes and apparatus for the synthesis of compounds” (TEEWINOT T[…], priority 2013, dated 2019).
# T1: THCA synthase (Cannabis sativa, UniProt Q8GTB6)
# T1 construct: His-tag (C); made in house; host or cells: Pichia pastoris (PichiaPink, pPink-HC vector), secreted into the medium; cell-free T3 supernatant used
# T1 sequence (Q8GTB6 29-545): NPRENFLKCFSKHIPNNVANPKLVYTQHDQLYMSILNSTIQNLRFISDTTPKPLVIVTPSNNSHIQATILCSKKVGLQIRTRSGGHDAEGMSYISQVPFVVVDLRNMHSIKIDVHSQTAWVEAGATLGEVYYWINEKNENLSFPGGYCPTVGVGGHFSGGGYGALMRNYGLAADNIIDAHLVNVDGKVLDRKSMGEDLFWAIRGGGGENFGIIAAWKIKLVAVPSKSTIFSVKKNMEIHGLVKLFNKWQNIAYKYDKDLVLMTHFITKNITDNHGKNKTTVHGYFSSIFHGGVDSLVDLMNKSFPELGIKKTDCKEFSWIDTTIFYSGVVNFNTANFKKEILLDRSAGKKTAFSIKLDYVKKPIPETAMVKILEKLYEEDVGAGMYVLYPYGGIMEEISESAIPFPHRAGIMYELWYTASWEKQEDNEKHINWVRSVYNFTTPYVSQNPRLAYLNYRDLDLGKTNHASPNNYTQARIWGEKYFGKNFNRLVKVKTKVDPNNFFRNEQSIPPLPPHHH
# B1: Pme THC(2) #46: cell free supernatant with THCA synthase from a pPink yeast colony transformed with Pme I linearized THCA synthase plasmid (protein, UniProt Q8GTB6 29-545, looked up)
# Tetrahydrocannabinolic acid …: NPRENFLKCFSKHIPNNVANPKLVYTQHDQLYMSILNSTIQNLRFISDTTPKPLVIVTPSNNSHIQATILCSKKVGLQIRTRSGGHDAEGMSYISQVPFVVVDLRNMHSIKIDVHSQTAWVEAGATLGEVYYWINEKNENLSFPGGYCPTVGVGGHFSGGGYGALMRNYGLAADNIIDAHLVNVDGKVLDRKSMGEDLFWAIRGGGGENFGIIAAWKIKLVAVPSKSTIFSVKKNMEIHGLVKLFNKWQNIAYKYDKDLVLMTHFITKNITDNHGKNKTTVHGYFSSIFHGGVDSLVDLMNKSFPELGIKKTDCKEFSWIDTTIFYSGVVNFNTANFKKEILLDRSAGKKTAFSIKLDYVKKPIPETAMVKILEKLYEEDVGAGMYVLYPYGGIMEEISESAIPFPHRAGIMYELWYTASWEKQEDNEKHINWVRSVYNFTTPYVSQNPRLAYLNYRDLDLGKTNHASPNNYTQARIWGEKYFGKNFNRLVKVKTKVDPNNFFRNEQSIPPLPPHHH
# modifications: yeast culture supernatant
# notes: cell free supernatant with THCA synthase from a pPink yeast colony transformed with Pme I linearized THCA synthase plasmid
# B2: Pme THC(2) #51: cell free supernatant with THCA synthase from a pPink yeast colony transformed with Pme I linearized THCA synthase plasmid (protein, UniProt Q8GTB6 29-545, looked up)
# Tetrahydrocannabinolic acid …: NPRENFLKCFSKHIPNNVANPKLVYTQHDQLYMSILNSTIQNLRFISDTTPKPLVIVTPSNNSHIQATILCSKKVGLQIRTRSGGHDAEGMSYISQVPFVVVDLRNMHSIKIDVHSQTAWVEAGATLGEVYYWINEKNENLSFPGGYCPTVGVGGHFSGGGYGALMRNYGLAADNIIDAHLVNVDGKVLDRKSMGEDLFWAIRGGGGENFGIIAAWKIKLVAVPSKSTIFSVKKNMEIHGLVKLFNKWQNIAYKYDKDLVLMTHFITKNITDNHGKNKTTVHGYFSSIFHGGVDSLVDLMNKSFPELGIKKTDCKEFSWIDTTIFYSGVVNFNTANFKKEILLDRSAGKKTAFSIKLDYVKKPIPETAMVKILEKLYEEDVGAGMYVLYPYGGIMEEISESAIPFPHRAGIMYELWYTASWEKQEDNEKHINWVRSVYNFTTPYVSQNPRLAYLNYRDLDLGKTNHASPNNYTQARIWGEKYFGKNFNRLVKVKTKVDPNNFFRNEQSIPPLPPHHH
# modifications: yeast culture supernatant
# notes: as for B1
# B3: Pme THC(3) #1: cell free supernatant with THCA synthase from a pPink yeast colony transformed with Pme I linearized THCA synthase plasmid (protein, UniProt Q8GTB6 29-545, looked up)
# Tetrahydrocannabinolic acid …: NPRENFLKCFSKHIPNNVANPKLVYTQHDQLYMSILNSTIQNLRFISDTTPKPLVIVTPSNNSHIQATILCSKKVGLQIRTRSGGHDAEGMSYISQVPFVVVDLRNMHSIKIDVHSQTAWVEAGATLGEVYYWINEKNENLSFPGGYCPTVGVGGHFSGGGYGALMRNYGLAADNIIDAHLVNVDGKVLDRKSMGEDLFWAIRGGGGENFGIIAAWKIKLVAVPSKSTIFSVKKNMEIHGLVKLFNKWQNIAYKYDKDLVLMTHFITKNITDNHGKNKTTVHGYFSSIFHGGVDSLVDLMNKSFPELGIKKTDCKEFSWIDTTIFYSGVVNFNTANFKKEILLDRSAGKKTAFSIKLDYVKKPIPETAMVKILEKLYEEDVGAGMYVLYPYGGIMEEISESAIPFPHRAGIMYELWYTASWEKQEDNEKHINWVRSVYNFTTPYVSQNPRLAYLNYRDLDLGKTNHASPNNYTQARIWGEKYFGKNFNRLVKVKTKVDPNNFFRNEQSIPPLPPHHH
# modifications: yeast culture supernatant
# notes: as for B1
# B4: Pme THC(3) #11: cell free supernatant with THCA synthase from a pPink yeast colony transformed with Pme I linearized THCA synthase plasmid (protein, UniProt Q8GTB6 29-545, looked up)
# Tetrahydrocannabinolic acid …: NPRENFLKCFSKHIPNNVANPKLVYTQHDQLYMSILNSTIQNLRFISDTTPKPLVIVTPSNNSHIQATILCSKKVGLQIRTRSGGHDAEGMSYISQVPFVVVDLRNMHSIKIDVHSQTAWVEAGATLGEVYYWINEKNENLSFPGGYCPTVGVGGHFSGGGYGALMRNYGLAADNIIDAHLVNVDGKVLDRKSMGEDLFWAIRGGGGENFGIIAAWKIKLVAVPSKSTIFSVKKNMEIHGLVKLFNKWQNIAYKYDKDLVLMTHFITKNITDNHGKNKTTVHGYFSSIFHGGVDSLVDLMNKSFPELGIKKTDCKEFSWIDTTIFYSGVVNFNTANFKKEILLDRSAGKKTAFSIKLDYVKKPIPETAMVKILEKLYEEDVGAGMYVLYPYGGIMEEISESAIPFPHRAGIMYELWYTASWEKQEDNEKHINWVRSVYNFTTPYVSQNPRLAYLNYRDLDLGKTNHASPNNYTQARIWGEKYFGKNFNRLVKVKTKVDPNNFFRNEQSIPPLPPHHH
# modifications: yeast culture supernatant
# notes: as for B1
# B5: Pme THC(3) #17: cell free supernatant with THCA synthase from a pPink yeast colony transformed with Pme I linearized THCA synthase plasmid (protein, UniProt Q8GTB6 29-545, looked up)
# Tetrahydrocannabinolic acid …: NPRENFLKCFSKHIPNNVANPKLVYTQHDQLYMSILNSTIQNLRFISDTTPKPLVIVTPSNNSHIQATILCSKKVGLQIRTRSGGHDAEGMSYISQVPFVVVDLRNMHSIKIDVHSQTAWVEAGATLGEVYYWINEKNENLSFPGGYCPTVGVGGHFSGGGYGALMRNYGLAADNIIDAHLVNVDGKVLDRKSMGEDLFWAIRGGGGENFGIIAAWKIKLVAVPSKSTIFSVKKNMEIHGLVKLFNKWQNIAYKYDKDLVLMTHFITKNITDNHGKNKTTVHGYFSSIFHGGVDSLVDLMNKSFPELGIKKTDCKEFSWIDTTIFYSGVVNFNTANFKKEILLDRSAGKKTAFSIKLDYVKKPIPETAMVKILEKLYEEDVGAGMYVLYPYGGIMEEISESAIPFPHRAGIMYELWYTASWEKQEDNEKHINWVRSVYNFTTPYVSQNPRLAYLNYRDLDLGKTNHASPNNYTQARIWGEKYFGKNFNRLVKVKTKVDPNNFFRNEQSIPPLPPHHH
# modifications: yeast culture supernatant
# notes: as for B1
# B6: Pme THC(3) #19: cell free supernatant with THCA synthase from a pPink yeast colony transformed with Pme I linearized THCA synthase plasmid (protein, UniProt Q8GTB6 29-545, looked up)
# Tetrahydrocannabinolic acid …: NPRENFLKCFSKHIPNNVANPKLVYTQHDQLYMSILNSTIQNLRFISDTTPKPLVIVTPSNNSHIQATILCSKKVGLQIRTRSGGHDAEGMSYISQVPFVVVDLRNMHSIKIDVHSQTAWVEAGATLGEVYYWINEKNENLSFPGGYCPTVGVGGHFSGGGYGALMRNYGLAADNIIDAHLVNVDGKVLDRKSMGEDLFWAIRGGGGENFGIIAAWKIKLVAVPSKSTIFSVKKNMEIHGLVKLFNKWQNIAYKYDKDLVLMTHFITKNITDNHGKNKTTVHGYFSSIFHGGVDSLVDLMNKSFPELGIKKTDCKEFSWIDTTIFYSGVVNFNTANFKKEILLDRSAGKKTAFSIKLDYVKKPIPETAMVKILEKLYEEDVGAGMYVLYPYGGIMEEISESAIPFPHRAGIMYELWYTASWEKQEDNEKHINWVRSVYNFTTPYVSQNPRLAYLNYRDLDLGKTNHASPNNYTQARIWGEKYFGKNFNRLVKVKTKVDPNNFFRNEQSIPPLPPHHH
# modifications: yeast culture supernatant
# notes: as for B1
# B7: Pme THC(3) #20: cell free supernatant with THCA synthase from a pPink yeast colony transformed with Pme I linearized THCA synthase plasmid (protein, UniProt Q8GTB6 29-545, looked up)
# Tetrahydrocannabinolic acid …: NPRENFLKCFSKHIPNNVANPKLVYTQHDQLYMSILNSTIQNLRFISDTTPKPLVIVTPSNNSHIQATILCSKKVGLQIRTRSGGHDAEGMSYISQVPFVVVDLRNMHSIKIDVHSQTAWVEAGATLGEVYYWINEKNENLSFPGGYCPTVGVGGHFSGGGYGALMRNYGLAADNIIDAHLVNVDGKVLDRKSMGEDLFWAIRGGGGENFGIIAAWKIKLVAVPSKSTIFSVKKNMEIHGLVKLFNKWQNIAYKYDKDLVLMTHFITKNITDNHGKNKTTVHGYFSSIFHGGVDSLVDLMNKSFPELGIKKTDCKEFSWIDTTIFYSGVVNFNTANFKKEILLDRSAGKKTAFSIKLDYVKKPIPETAMVKILEKLYEEDVGAGMYVLYPYGGIMEEISESAIPFPHRAGIMYELWYTASWEKQEDNEKHINWVRSVYNFTTPYVSQNPRLAYLNYRDLDLGKTNHASPNNYTQARIWGEKYFGKNFNRLVKVKTKVDPNNFFRNEQSIPPLPPHHH
# modifications: yeast culture supernatant
# notes: as for B1
# Target: T1, THCA synthase
# Assay: catalytic activity of THCA synthase from independent colonies of transformed pPink yeast cells (conversion of CBGA to THCA)
# Type: biochemical
# Settings: 25 μl cell free supernatant of T3 sample, 100 mM citrate buffer, 10% DMSO, final pH 5.0, 2 hours at 30° C.
# Description: After 24 hours a 100 μL of the cell sample was removed to which was added 100 μL of 40% methanol to induce enzyme production. This methanolic sample was then centrifuged at 12,000 rpm for 5 minutes and the supernatant and pellet were saved as the T1 sample. A second culture sample was obtained after a 48 hour incubation period and treated with methanol as described above. After centrifugation, the supernatant and pellet are saved as the T2 sample. At 72 hours the entire incubation mixture is treated with an appropriate volume of 40% methanol. The supernatant and pellet obtained from methanolic treatment of the culture after a 72 hour incubation period is labeled as T3. The T3 supernatant was spun through an Amicon 30 kD protein filter and analyzed for protein using an SDS-PAGE gel.
# The catalytic activity of THCA synthase was measured by incubating 25 μl of the cell free supernatant from a T3 sample with 25 μl of a 1 mg/ml CBGA stock in 200 μl of a 100 mM citrate buffer at pH 4.8 having 10% DMSO for 2 hours at 30° C. The final concentration of CBGA in the reaction mixture was 0.1 mg/ml and the final pH is 5.0. Table 4 illustrates the data related to the catalytic activity of THCA synthase obtained from independent colonies of transformed pPink yeast cells, namely. pPink yeast cells that were transformed using linearized THCA synthase plasmids. Culture samples that converted greater than 20% of the substrate CBGA to product THCA were selected for scale up.
row,Molecule,% Conversion of CBGA to THCA in reaction containing 0.1 mg/ml CBGA. [%]
1,B1,40.7
2,B2,26.8
3,B3,55.2
4,B4,35.0
5,B5,69.9
6,B6,36.8
7,B7,34.3
